Test results from publication PMC11514473, “The transition state for coupled folding and binding of a disordered DNA binding domain resembles the unbound state” (Nucleic Acids Research, 2024).

Experiments:
285bZIP K309G = target: T1, 285bZIP K309G (human, UniProt P16220-1 285-339, C300S;C310S;C337S;K309G); assay: stopped-flow fluorescence (koff/kon); 10 mM Mg2+; 10 mM MES pH 6.5, 150 mM NaCl, 10 mM MgCl2, 0.05% Tween-20, 25 C; NMR: 10 mM Tris-d11, 150 mM NaCl, 10 mM MgCl2, 1 mM NaN3, 5% D2O (NOE at 25 C); details: protein: recombinant; tags: extra N-terminal Gly; chain copies: 2; label: 5' Alexa Fluor 488; hairpin (self-annealing, 11 bp stem, CCCC loop)
T1 sequence: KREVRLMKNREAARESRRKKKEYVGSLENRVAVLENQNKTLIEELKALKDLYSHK

285bZIP R302A = target: T2, 285bZIP R302A (human, UniProt P16220-1 285-339, C300S;C310S;C337S;R302A); assay: as above; details: protein: recombinant; tags: extra N-terminal Gly; chain copies: 2; label: 5' Alexa Fluor 488; hairpin (self-annealing, 11 bp stem, CCCC loop)
T2 sequence: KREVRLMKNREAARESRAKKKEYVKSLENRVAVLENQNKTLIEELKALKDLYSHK

B1: AlexaFluor488-CREh (structured_DNA)
DNA: CCTGACGTCAGCCCCCTGACGTCAGG
Kd (285bZIP K309G): 26 ± 2 nM | Kd (285bZIP R302A): 13.9 ± 1.8 nM
